# Earlier results as cited in publication PMC3490216.
# Columns and labels:
# [1] = biological target: VPAC2 receptor (UniProt P41587)
# [2] = biological target: VPAC1 receptor (UniProt P32241)
# Sequence of UniProt P32241 (P32241 31-457): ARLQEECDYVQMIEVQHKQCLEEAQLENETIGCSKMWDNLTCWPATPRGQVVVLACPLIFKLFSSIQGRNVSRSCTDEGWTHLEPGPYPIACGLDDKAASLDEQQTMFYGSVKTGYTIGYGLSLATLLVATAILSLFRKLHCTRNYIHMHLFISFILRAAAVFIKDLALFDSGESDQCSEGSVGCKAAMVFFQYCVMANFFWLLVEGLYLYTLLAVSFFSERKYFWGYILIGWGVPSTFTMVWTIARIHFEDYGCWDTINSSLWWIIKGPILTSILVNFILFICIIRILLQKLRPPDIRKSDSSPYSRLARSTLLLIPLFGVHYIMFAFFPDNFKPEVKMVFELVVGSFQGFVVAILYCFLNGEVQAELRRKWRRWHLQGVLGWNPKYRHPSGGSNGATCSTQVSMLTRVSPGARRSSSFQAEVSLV
# Sequence of UniProt P41587 (P41587 24-438): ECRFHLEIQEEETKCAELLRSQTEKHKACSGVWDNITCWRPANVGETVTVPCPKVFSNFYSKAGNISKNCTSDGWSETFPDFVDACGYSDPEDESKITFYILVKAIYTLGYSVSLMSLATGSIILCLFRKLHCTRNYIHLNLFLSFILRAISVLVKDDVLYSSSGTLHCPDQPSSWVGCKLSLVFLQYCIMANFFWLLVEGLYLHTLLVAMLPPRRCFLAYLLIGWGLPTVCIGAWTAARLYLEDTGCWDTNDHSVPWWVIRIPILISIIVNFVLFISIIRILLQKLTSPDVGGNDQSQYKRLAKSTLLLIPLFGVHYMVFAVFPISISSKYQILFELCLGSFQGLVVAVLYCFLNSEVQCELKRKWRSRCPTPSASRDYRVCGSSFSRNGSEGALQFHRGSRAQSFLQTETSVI
substance,measurement,setting,value
VIP (from UniProt P01282),Kd,[1],3 nM
same,Kd,[2],3 nM
